# Test results as given in PMC8546227.
# Target: Hoc^-Soc^- T4 phage capsid (bacteriophage T4) (UniProt P19896)
# Experiment: co-sedimentation
# Sequence of UniProt P19896 (P19896 whole entry, looked up): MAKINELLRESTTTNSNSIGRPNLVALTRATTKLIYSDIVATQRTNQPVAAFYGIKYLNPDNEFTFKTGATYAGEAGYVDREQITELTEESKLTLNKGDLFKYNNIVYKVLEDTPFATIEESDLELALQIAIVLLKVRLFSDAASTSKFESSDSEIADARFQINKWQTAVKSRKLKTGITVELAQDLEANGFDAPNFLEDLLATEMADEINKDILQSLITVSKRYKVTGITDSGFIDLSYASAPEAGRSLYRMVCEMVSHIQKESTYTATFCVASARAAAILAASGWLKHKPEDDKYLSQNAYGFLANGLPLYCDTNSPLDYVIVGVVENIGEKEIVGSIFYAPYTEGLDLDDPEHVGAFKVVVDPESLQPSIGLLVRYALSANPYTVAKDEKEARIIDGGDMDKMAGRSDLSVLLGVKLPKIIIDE
substance,measurement,value
"Soc-3M2e fusion protein (RB69 Soc with three tandem copies of M2e from human, swine and avian influe",Kd,305 nM
